From US20200407750A1

How the values were obtained:
[1] = target: AAV9.AAQAA capsid mutant (adeno-associated virus 9 (AAV9), mutant); assay: cell-based or functional assay
[2] = target: AAV9.QQNAA capsid mutant (adeno-associated virus 9 (AAV9), mutant); assay: cell-based or functional assay
[3] = target: AAV9.RGHRE capsid mutant (adeno-associated virus 9 (AAV9), mutant); assay: cell-based or functional assay
[4] = target: AAV9.RGNRQ capsid mutant (adeno-associated virus 9 (AAV9), mutant); assay: cell-based or functional assay
[5] = target: AAV9.SAQAA capsid mutant (adeno-associated virus 9 (AAV9), mutant); assay: cell-based or functional assay
[6] = target: AAV9.SAQAN capsid mutant (adeno-associated virus 9 (AAV9), mutant); assay: cell-based or functional assay
[7] = target: AAV9.SSNTA capsid mutant (adeno-associated virus 9 (AAV9), mutant); assay: cell-based or functional assay
[8] = target: AAV9.TQAAA capsid mutant (adeno-associated virus 9 (AAV9), mutant); assay: cell-based or functional assay
[9] = target: AAV9.WT capsid (AAV9 vector) (adeno-associated virus 9 (AAV9)); assay: cell-based or functional assay
[10] = target: AAV9.RGNRQ capsid mutant (adeno-associated virus 9 (AAV9), mutant); assay: capsid capture ELISA, as told in the discussion
[11] = target: AAV9.AAQAA capsid mutant (adeno-associated virus 9 (AAV9), mutant); assay: capsid capture ELISA, EC50 from dose-response fit
[12] = target: AAV9.QQNAA capsid mutant (adeno-associated virus 9 (AAV9), mutant); assay: capsid capture ELISA, EC50 from dose-response fit
[13] = target: AAV9.RGHRE capsid mutant (adeno-associated virus 9 (AAV9), mutant); assay: capsid capture ELISA, EC50 from dose-response fit
[14] = target: AAV9.RGNRQ capsid mutant (adeno-associated virus 9 (AAV9), mutant); assay: capsid capture ELISA, EC50 from dose-response fit
[15] = target: AAV9.SAQAA capsid mutant (adeno-associated virus 9 (AAV9), mutant); assay: capsid capture ELISA, EC50 from dose-response fit
[16] = target: AAV9.SAQAN capsid mutant (adeno-associated virus 9 (AAV9), mutant); assay: capsid capture ELISA, EC50 from dose-response fit
[17] = target: AAV9.SSNTA capsid mutant (adeno-associated virus 9 (AAV9), mutant); assay: capsid capture ELISA, EC50 from dose-response fit
[18] = target: AAV9.TQAAA capsid mutant (adeno-associated virus 9 (AAV9), mutant); assay: capsid capture ELISA, EC50 from dose-response fit
[19] = target: AAV9.WT capsid (AAV9 vector) (adeno-associated virus 9 (AAV9)); assay: capsid capture ELISA, EC50 from dose-response fit

Substance: PAV9.1 monoclonal antibody
- Fold reduction NAb titer [1]: 16 fold
- Fold reduction NAb titer [2]: 128 fold
- Fold reduction NAb titer [3]: > 2048 fold
- NAb titer of PAV9.1 (reciprocal dilution) [3]: < 80
- Fold reduction NAb titer [4]: 8 fold
- Fold reduction NAb titer [5]: 4 fold
- Fold reduction NAb titer [6]: 16 fold
- Fold reduction NAb titer [7]: 512 fold
- Fold reduction NAb titer [8]: 16 fold
- Fold reduction NAb titer [9]: 1 fold
- effective NAb titer (NAb assay, transduction of HEK293 cells) (reciprocal dilution) [9]: 164000
- fold reduction in binding (relative to WT.AAV9) [10]: 50 fold
- Fold increase EC50 (relative to AAV9.WT) [11]: 45 fold
- Fold increase EC50 (relative to AAV9.WT) [12]: 124 fold
- Fold increase EC50 (relative to AAV9.WT) [13]: 294 fold
- Fold increase EC50 (relative to AAV9.WT) [14]: 96 fold
- Fold increase EC50 (relative to AAV9.WT) [15]: 20 fold
- Fold increase EC50 (relative to AAV9.WT) [16]: 40 fold
- Fold increase EC50 (relative to AAV9.WT) [17]: 264 fold
- Fold increase EC50 (relative to AAV9.WT) [18]: 15 fold
- Fold increase EC50 (relative to AAV9.WT) [19]: 1 fold
